# Reference: article PMC2659241 (The Journal of Biological Chemistry, 2009)
# Target: Recombinant human moesin FERM domain (human, UniProt P26038 2-295)
# Test: cross-linking
# Sequence of Recombinant human moesin FERM domain (P26038 2-295): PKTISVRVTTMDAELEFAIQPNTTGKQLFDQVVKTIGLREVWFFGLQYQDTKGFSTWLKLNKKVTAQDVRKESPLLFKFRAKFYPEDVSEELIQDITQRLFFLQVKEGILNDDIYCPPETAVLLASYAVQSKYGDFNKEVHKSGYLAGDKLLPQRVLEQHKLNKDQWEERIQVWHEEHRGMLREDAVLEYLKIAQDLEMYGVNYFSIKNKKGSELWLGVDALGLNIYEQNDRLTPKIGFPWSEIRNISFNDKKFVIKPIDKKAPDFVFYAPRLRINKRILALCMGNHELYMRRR
binder,measurement,value
RRLKKGKKSKRSMNDPY [L-selectin cytoplasmic tail peptide],stoichiometry N,1
